To fix the notation:
B1: SA3827 (antibody, V domains shown)
VH: QVQLVESGGTLVQPGRSLRLSCAASGFTFSSYAMHWVRQAPGKGLEWVAVISYDGSNKYYADSVKGRFTISRDNSKNTLYLQMNSLRAEDTAVYYCARRGHYYDSSGFLYWGQGTLVTVSS
VL: DIQMTQSPSSLSASVGDRVTITCRASQSISTYLSWYQQKPGKAPKLLIYAASNLQSGVPSRFSASGSGTDFTLTISSLQPEDFATYYCQQSYNTPRTFGQGTKVEIK
B2: SA3755 (antibody, V domains shown)
VH: QMQLVESGGGVVQPGGSLRLSCAASGFTFDDHTMHWVRQAPGKGLEWVSLISWDGGSTYYADSVKGRFTISRDNSKNSLYLQMNSLRAEDTAVYYCTRDASRRPGDGGYDFDVWGQGTQVTVSS
VL: QAVVTQEPSLTVSPGGTVTLTCGSSTGTVTRGHWPYWFQQKPGQAPRTLIYDTDNKHSWTPARFSGSLLGGKAALTLSGAQPEDEADYYCLLSYSDSRVFGTGTKVTVL
B3: SA4114 (antibody, V domains shown)
VH: B1 VH
VL: DIQMTQSPSSLSASVGDRVTITCRAGQSIDNYLNWYQQKPGKAPKLLIYAASTLHSGVPSRFSGSGSGTDFTLTISSLQPDDFATYYCQQSYSIPRTFGQGTKLEIK
B4: SA4086 (antibody, V domains shown)
VH: B1 VH with T10G, L11V, V64A, F108Y, Q113H, V117I
VL: B1 VL
B5: SA4118 (antibody, V domains shown)
VH: QVQLVESGAEVKKPGASVRVSCKISGYIFTELSIHWVRQAPGKGLEWMGGFDPEEGKTIYAQKFQGRVTMTEDTSTDTAYMELSSLRSEDTAVYYCAKIGHLGDFWYWGQGTLITVSS
VL: QSALTQPASVSGSPGQSITISCTGTTSDIGSYDYVSWYQQHPGKAPKLIIYGVTRRPSGVSNRFSGSKSGNTASLTISGLQAEDEANYYCSSCTRSSTYVFGTGTKVTVL
B6: SA4079 (antibody, V domains shown)
VH: B2 VH
VL: B2 VL with V18A, N55T

Residue numbers refer to the chain shown, from its start.

A word on the Kd: it is the free concentration of one partner at which half of the binding sites on the other are occupied at equilibrium, for simple one-to-one binding. Lower therefore signals tighter binding. As usually defined, the koff is the first-order rate constant of dissociation. Lower therefore signals slow dissociation. The term kon denotes the second-order rate constant of association. A lower kon goes with slower complex formation. By IC50 is commonly meant the midpoint of a concentration-inhibition curve. A lower IC50 goes with inhibition by little substance.

In the first assay the target is T1, SARS-CoV-2 RBD-hFc (SARS-CoV-2, UniProt P0DTC2 319-541). The experiment in a line: cell-based or functional assay.
For the molecule B1, the “IC50, 세포내 유입(internalization) 억제, HEK293E/ACE2-GFP” value (from here on “IC50 … HEK293E/ACE2-GFP”) was determined as 12.9 nM.

In the case of B2, the “IC50 … HEK293E/ACE2-GFP” value stood at 40 nM.

The next assay addresses T2, SARS-CoV 스파이크 [change] (#40150-V08B1, Sino Biological) (SARS-CoV, UniProt P59594 14-667). Briefly: ELISA, coated S1-His. Background: In an ELISA, binding on a coated surface is turned into a signal by an enzyme label.
With B1, the binding result is given as “no binding (tested: 50 nM)”.

Turning to B2, the binding result was “no binding (tested: 50 nM)”.

A further assay concerns the target T3, SARS-CoV-2 RBD-mFc (SARS-CoV-2, UniProt P0DTC2 319-541).
T3 construct: range 319-541
The experiment in a line: Octet QKe BLI, 1:1 global fit.
Regarding B3, the Kd came to 0.0899 nM, the koff was determined as 3.89e-05 s⁻¹ and the kon came to 433000 M⁻¹ s⁻¹.

B4 gave a Kd of 0.106 nM, a koff of 4.99e-05 s⁻¹ and an on-rate constant (kon) of 471000 M⁻¹ s⁻¹.

Regarding B5, the affinity, expressed as Kd, was 0.0296 nM; the koff was 2.05e-05 s⁻¹; the kon is 695000 M⁻¹ s⁻¹.

On to B6, for which the Kd worked out at 0.154 nM, the koff turned out to be 5.73e-05 s⁻¹ and the association rate constant (kon) was found to be 373000 M⁻¹ s⁻¹.

The target in a further assay is T4, SARS-CoV-2 spike protein on live SARS-CoV-2 virus (SARS-CoV-2, UniProt P0DTC2 14-1273). The experiment in a line: cell-based or functional assay.
Turning to B1, the “IC50, live SARS-CoV-2 미세중화분석, Vero 세포” value stood at 8.92 nM.

For B2, the “IC50, live SARS-CoV-2 미세중화분석, Vero 세포” value was found to be 8.74 nM.

A further assay addresses SARS-CoV RBD-His (#40150-V08B2, Sino Biological) (SARS-CoV, UniProt P59594 306-527). The experiment in a line: ELISA, coated His-tagged antigen.
With B1, the binding result is “no binding”.

For B3, the binding result is “no binding”.

Consider B4, for which the binding result is listed as “no binding”.

For B5, the binding result is “no binding”.

Take B2: the binding result is on record as “no binding”.

Regarding B6, the binding result was “no binding”.

A further assay has as its target T1, SARS-CoV-2 RBD-hFc. The experiment in a line: cell-based or functional assay. The source holds these as a separate data set.
In the case of B1, the “IC50 … HEK293E/ACE2-GFP” value turned out to be 18.3 nM.

B3: the “IC50 … HEK293E/ACE2-GFP” value is 24.1 nM.

Take B4: the “IC50 … HEK293E/ACE2-GFP” value was found to be 27.2 nM.

For the molecule B5, the “IC50 … HEK293E/ACE2-GFP” value turned out to be 31.4 nM.

For B2, the “IC50 … HEK293E/ACE2-GFP” value worked out at 35.8 nM.

For B6, the “IC50 … HEK293E/ACE2-GFP” value was determined as 40 nM.

The target in a further assay is T5, SARS-CoV-2 스파이크 S1-mFc (SARS-CoV-2, UniProt P0DTC2 16-685).
T5 construct: range 16-685
Briefly: competition ELISA: S1-mFc on coated ACE2-His.
Regarding B1, the IC50 came out at 0.61 nM.

B2: the half-maximal inhibitory concentration (IC50) is 4.06 nM.

The next assay has as its target T3, SARS-CoV-2 RBD-mFc. The experiment in a line: competition ELISA: RBD-mFc on coated ACE2-His.
With B1, the half-maximal inhibitory concentration (IC50) turned out to be 0.914 nM.

As for B2, the IC50 stood at 7.74 nM.

Another assay concerns the target T3, SARS-CoV-2 RBD-mFc.
Experiment: not given
Take B2: the half-maximal inhibitory concentration (IC50) was determined as 2.26 nM.

In a further assay the target is T3, SARS-CoV-2 RBD-mFc. Briefly: flow cytometry competition: RBD-mFc on HEK293E/ACE2 cells. On the technique in general: In flow cytometry, cells or beads pass a laser one at a time.
B1 showed an IC50 of 2.74 nM.

With B2, the IC50 was determined as 3.8 nM.

For another assay, the target named is T3, SARS-CoV-2 RBD-mFc. Briefly: Octet QKe BLI, 1:1 global fit. The source holds these as a separate data set. For orientation: In BLI a coated tip is dipped into the sample, and binding shifts an interference pattern.
On to B1, for which the Kd is 0.452 nM, the koff turned out to be 0.000173 s⁻¹ and the kon worked out at 383000 M⁻¹ s⁻¹.

B2 yielded a Kd of 1.06 nM, a koff of 0.000424 s⁻¹ and an on-rate (kon) of 399000 M⁻¹ s⁻¹.

The target of a further assay is T5, SARS-CoV-2 스파이크 S1-mFc.
Experiment: not given
In turn, B2 showed an IC50 of 8.27 nM.

The target of a further assay is T3, SARS-CoV-2 RBD-mFc.
Experiment: not given
The source holds these as a separate data set.
As to B2, the IC50 turned out to be 23.1 nM.

The next assay concerns the target T2, SARS-CoV 스파이크 [change] (#40150-V08B1, …). Briefly: ELISA, coated S1-His, as Example 5.2.
Consider B3, for which the binding result is given as “no binding”.

B4: the binding result is reported as “no binding”.

Regarding B5, the binding result is “no binding”.

With B6, the binding result was “no binding”.

A further assay concerns the target T3, SARS-CoV-2 RBD-mFc. Briefly: competition ELISA: RBD-mFc on coated ACE2-His. The source holds these as a separate data set.
The molecule B1 gave an IC50 of 0.321 nM.

As to B3, the IC50 was 0.364 nM.

Turning to B4, the IC50 is 1.24 nM.

In turn, B5 returned an IC50 of 0.709 nM.

For B2, the IC50 came out at 5.71 nM.

B6 returned an IC50 of 3.62 nM.

The next assay concerns the target T5, SARS-CoV-2 스파이크 S1-mFc. The experiment in a line: competition ELISA: S1-mFc on coated ACE2-His. The source holds these as a separate data set.
Molecule B1 came in with an IC50 of 0.9 nM.

B3 displayed an IC50 of 1.19 nM.

B4 came in with an IC50 of 1.28 nM.

As for B5, the IC50 stood at 2.28 nM.

In the case of B2, the IC50 came to 4.67 nM.

On to B6, for which the half-maximal inhibitory concentration (IC50) stood at 2.71 nM.

A further assay deals with T4, SARS-CoV-2 spike protein on live …. Briefly: cell-based or functional assay. This is another data set of the same source.
On to B1, for which the “IC50, live SARS-CoV-2 미세중화분석, Vero 세포, 72시간” value (from here on “IC50 … 72시간”) is 7.94 nM.

For the molecule B3, the “IC50 … 72시간” value was determined as 12.8 nM.

As for B4, the “IC50 … 72시간” value is 12.4 nM.

For B5, the “IC50 … 72시간” value amounted to 8.29 nM.

For the molecule B2, the “IC50 … 72시간” value was found to be 5.12 nM.

For the molecule B6, the “IC50 … 72시간” value is 2.74 nM.

A further assay has as its target T3, SARS-CoV-2 RBD-mFc. Briefly: flow cytometry competition: RBD-mFc on HEK293E/ACE2 cells. The source holds these as a separate data set.
Regarding B1, the IC50 is 2.71 nM.

In the case of B3, the IC50 worked out at 2.39 nM.

B4 came in with an IC50 of 2.47 nM.

B5 had a 50% inhibitory concentration (IC50) of 2.71 nM.

Molecule B2 showed a half-maximal inhibitory concentration (IC50) of 3.09 nM.

Consider B6, for which the IC50 worked out at 2.35 nM.

Source of the values: patent KR20220054080A (dated 2022).
